Target: T1, MdMYB1 (Malus domestica? (apple), UniProt A0SQ37 1-243)
T1 sequence: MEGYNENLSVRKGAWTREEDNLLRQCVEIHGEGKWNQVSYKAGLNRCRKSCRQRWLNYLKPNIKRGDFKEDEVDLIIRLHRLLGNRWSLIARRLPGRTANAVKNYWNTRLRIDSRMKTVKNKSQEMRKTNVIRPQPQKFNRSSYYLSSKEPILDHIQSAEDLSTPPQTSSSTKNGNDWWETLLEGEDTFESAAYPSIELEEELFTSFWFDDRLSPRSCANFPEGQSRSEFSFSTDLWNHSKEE
Test: EMSA; LightShift Chemiluminescent EMSA Kit (Thermo); buffer, salt, pH and temperature not stated
Conditions: protein: recombinant; tags: pET-32a fusion, His (Ni-agarose purified); blunt

B1: MdGSTF6-probe (dsDNA)
DNA 1: ATATCTAGTTGTAATCAACTGTTATGGCATAAATTG
DNA 2: CAATTTATGCCATAACAGTTGATTACAACTAGATAT
binding result: binds
